Biological target: T1, Snf5 (wild type, subunit of the recombinant SWI/SNF complex) (yeast, UniProt P18480 1-905)
T1 construct: Snf5, yeast, wild type; also called WT; source: overexpressed in E. coli (modified EcoExpress system), in the reconstituted complex
Assay: cryo-EM structure; recombinant yeast SWI/SNF complex in complex with the mononucleosome; overall resolution 6.9 Å, local 3.1 Å at the nucleosome bound with the FH of Snf5, local 3.6 Å at the SRM
Conditions: both partners purified

T1 sequence (P18480 whole entry, one chain of several): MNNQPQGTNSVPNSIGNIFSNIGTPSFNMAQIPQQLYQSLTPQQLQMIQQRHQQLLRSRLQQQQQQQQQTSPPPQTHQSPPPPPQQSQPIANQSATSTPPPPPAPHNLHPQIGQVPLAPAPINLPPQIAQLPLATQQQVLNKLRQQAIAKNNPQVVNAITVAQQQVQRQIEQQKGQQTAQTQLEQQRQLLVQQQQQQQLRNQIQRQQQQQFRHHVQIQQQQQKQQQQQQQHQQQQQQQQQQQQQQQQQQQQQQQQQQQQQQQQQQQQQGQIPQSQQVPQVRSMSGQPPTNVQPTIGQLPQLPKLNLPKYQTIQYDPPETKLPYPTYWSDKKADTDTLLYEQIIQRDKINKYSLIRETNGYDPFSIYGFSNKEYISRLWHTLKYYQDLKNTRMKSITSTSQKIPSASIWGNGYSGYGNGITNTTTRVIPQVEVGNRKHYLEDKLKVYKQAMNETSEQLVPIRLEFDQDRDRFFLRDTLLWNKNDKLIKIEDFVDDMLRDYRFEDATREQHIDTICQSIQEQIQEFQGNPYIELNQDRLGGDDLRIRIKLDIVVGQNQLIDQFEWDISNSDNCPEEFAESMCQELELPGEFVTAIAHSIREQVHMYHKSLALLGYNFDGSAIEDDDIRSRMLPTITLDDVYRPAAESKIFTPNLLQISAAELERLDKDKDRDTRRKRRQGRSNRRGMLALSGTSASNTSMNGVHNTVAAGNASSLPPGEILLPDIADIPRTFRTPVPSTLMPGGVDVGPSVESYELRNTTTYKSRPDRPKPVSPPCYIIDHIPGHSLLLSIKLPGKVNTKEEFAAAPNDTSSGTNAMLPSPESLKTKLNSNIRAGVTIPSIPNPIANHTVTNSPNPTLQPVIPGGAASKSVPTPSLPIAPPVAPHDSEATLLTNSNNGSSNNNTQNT

B1: Swp82 (natural protein, yeast)
chain: MLGEDEGNTVLEKGNNPSVKQGEVGAVFIVPKILIREHERVILKQILQILDQDELVQPPLDKFPYKKLELPKYIDELKTRDATNTSYKMIQLDAYGEKKVGSNGELFGGRHYLFNTFTFTAHMGVLLVLLQDVIKVLYQSNATHDEDEFIVQHDQILVMETSEEQTKFLAKNGVIPEESKGSFKYITARSAFVEFGASVIAGGQRIVDDYWESLAKKQNLSSHQRVFKLSTNLISKISLLRPSFQNNRISNANEISANTNNTCTISTSKFESQYPIVTEQPSAEIREAYIENFAKGEHISAIVPGQSISGTLELSAQFRVPRYHSKNSFQQALQMKAMDIPIGRHEELLAQYESQAPDGSASISLPNHIPSVNPSNKPIKRMLSSILDINVSSSKNKKSEENEMIKPMNKGQHKNNTSLNINGWKFESLPLKSAENSGKQQYYRGLPLYEKNTLLERLKQLTPNEIKELEHLHDAVFVNTGLQNVRKVRTKKWKKYWQYKAGIPIGLKRSQLDEFKNKYLKDVLAQTSVTTNFNEITNTDETITTKRVPNPNFLGNCNIKDFKPPYIYSHVNKVPQNVAGDKTAVKLDTEVKNTNANPVVATDPVAAKPDNLANFSNEVAMNN
notes: Swp82, yeast; source: overexpressed in E. coli (modified EcoExpress system), in the reconstituted complex
  binding result: binds

B2: Swi3 (natural protein, yeast)
chain: MENTLGEGSTVNASVDVDQHGNDNNSDSNANAAVAGVANTDTAGEESQQQDESLKDEATVPNTRDAESEAITVTAKQQPTMQANKLDSQETPSTEESRAQNVFGQDNEDSDNLFGETESSVSNNEANTPSIPTNPVDNENNKPAIKEDSTIQDSNGDVKNMEDVKIQKEEEPENNTVIEGVKEESQPDENTKEMDEVEEDDEDDDQPMISPDNSIFGDTKSESKQLGNTSSVANTPSEIPDAHKAEQEDIIEKTESVDKKVDSGEERNEQEREIMNDHSKSANPKKTTITRVEPETFEIPQAHEIVIPSYSKWFNLEKIHSIEVQSLPEFFTNRIPSKTPEVYMRYRNFMVNSYRLNPNEYFSVTTARRNVSGDAAALFRLHKFLTKWGLINYQVDSKLLPKNIEPPLTSQYSTRHDAPRGLFPFESYKPSVQLPDMAKLKKMMNTSDSESTLYKYLKESKRKYDEITHPPSTTDDENGDKNDNGGKMNNEVSTSTSMTGDANLLEEGETSRPLKKVKILEQIDENWSKEDLQKLLKGIQEFGADWYKVAKNVGNKSPEQCILRFLQLPIEDKFLYGDGNGKGDNDNGLGPLKYAPHLPFSKSENPVLSTIAFLVGLVNPKTVQSMTQRAIQSAESIKSQKEEISDQKPIEHIKEGSEIAISSLGYRSHIFATNEERQMNFLTNELIRLQMEKLDAKLNHLKKLEKFMELERKTLERQQENLLIQRLNFNQNSSKIVNVLSKCLNLISDSNINNSSVAEKEEIRSQIDHFKSMLSKPETLSIGKNPFNKPNIETGENHNGQSISNENDVKPISIEAPQFYRYWSA
notes: Swi3, yeast; source: overexpressed in E. coli (modified EcoExpress system), in the reconstituted complex
  binding result: binds
